Paper PMC12077105, “PASTA kinase signaling regulates peptidoglycan synthesis in Enterococcus faecalis by direct inhibition of UDP-N-acetylglucosamine 1-carboxyvinyl transferase activity” (mBio, 2025)

B1: purified recombinant wild-type IreB (expressed as His6-SUMO-IreB) (natural protein)
chain: MGFTDETVRFDFDDNRKKAISETLETVYRALEEKGYNPINQIVGYLLSGDPAYIPRYQDARNLIRRHERDEIMEELTKYYLANHGIDIK
notes: IreB of Enterococcus faecalis; wild-type allele amplified from OG1RF genomic DNA; IreB for the enzymatic assays was purified in MOPS buffer; also called unphosphorylated IreB; source: E. coli BL21(DE3), purified (Ni-charged resin)

How the values were obtained:
[1] = target: recombinant MurAB-His6 (E. faecalis) (UniProt Q836E5); assay: thermal shift assay; 2.5 uM MurAB with rising molar ratios of test protein, 10x SYPRO Orange, 50 mM Tris, 25 mM NaCl, pH 7.5; change of the MurAB melt temperature
recombinant MurAB-His6 [2] = target: T1, recombinant MurAB-His6 (E. faecalis, UniProt Q836E5 1-430); assay: cell-based or functional assay
T1 sequence: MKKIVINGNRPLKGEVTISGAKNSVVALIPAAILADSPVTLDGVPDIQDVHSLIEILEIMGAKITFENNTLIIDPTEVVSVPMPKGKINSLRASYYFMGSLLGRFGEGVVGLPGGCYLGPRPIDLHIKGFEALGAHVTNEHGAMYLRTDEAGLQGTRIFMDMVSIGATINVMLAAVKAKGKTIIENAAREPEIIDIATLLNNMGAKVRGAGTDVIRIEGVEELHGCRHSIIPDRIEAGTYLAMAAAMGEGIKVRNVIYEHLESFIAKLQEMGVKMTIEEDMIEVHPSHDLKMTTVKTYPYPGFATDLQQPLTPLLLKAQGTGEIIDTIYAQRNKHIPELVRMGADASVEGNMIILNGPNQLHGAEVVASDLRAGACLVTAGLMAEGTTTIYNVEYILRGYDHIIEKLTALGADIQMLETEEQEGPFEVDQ

recombinant MurAB-His6 [3] = target: T1, recombinant MurAB-His6; assay: thermal shift assay; 2.5 uM MurAB with rising molar ratios of test protein, 10x SYPRO Orange, 50 mM Tris, 25 mM NaCl, pH 7.5; change of the MurAB melt temperature; conditions: both partners purified

Row | Molecule | maximum shift of the MurAB Tm [1] | UNAG-CTase activity of purified MurAB (release of inorganic phosphate) with 10-fold molar excess of IreB: decrease of the reaction rate (recombinant MurAB-His6 [2]) | maximum shift of the MurAB Tm (recombinant MurAB-His6 [3])
1 | purified recombinant IreB D50A (expressed as His6-SUMO-IreB D50A) (from UniProt Q836B3 1-89) (natural protein) | 1.5 °C |  | 
2 | B1 |  | ~25% | 5 °C
